According to ChEMBL document CHEMBL4680222, “Sensitive fluorogenic substrates for sirtuin deacylase inhibitor discovery” (Eur J Med Chem, 2020):

What was measured:
[1] = compound: CC[C@H](C)[C@H](NC(=O)[C@H](CC(C)C)NC(=O)[C@H](CCCNC(=N)N)NC(C)=O)C(=O)N[C@@H](CCCCNC(C)=O)C(=O)Nc1ccc2c(C)cc(=O)oc2c1; assay: (§1) Substrate activity at human N-terminal His-tagged SIRT1 (183 to 664 residues) expressed in Escherichia coli assessed as Kcat measured after 1 hr in presence of NAD+ and trypsin by Michaelis-Menten kinetic model based fluorescence assay
[2] = compound: CC(=O)NCCCC[C@H](NC(=O)[C@H](CC(C)C)NC(=O)[C@H](CCCCN)NC(=O)[C@H](Cc1ccc(O)cc1)NC(C)=O)C(=O)Nc1ccc2c(C)cc(=O)oc2c1; assay: as §1
[3] = compound: CC[C@H](C)[C@H](NC(=O)[C@H](CC(C)C)NC(=O)[C@H](CCCNC(=N)N)NC(C)=O)C(=O)N[C@@H](CCCCNC(C)=O)C(=O)Nc1ccc2c(C)cc(=O)oc2c1; assay: (§2) Substrate activity at human N-terminal His-tagged SIRT1 (183 to 664 residues) expressed in Escherichia coli assessed as Vmax measured after 1 hr in presence of NAD+ and trypsin by Michaelis-Menten kinetic model based fluorescence assay
[4] = compound: CC(=O)NCCCC[C@H](NC(=O)[C@H](CC(C)C)NC(=O)[C@H](CCCCN)NC(=O)[C@H](Cc1ccc(O)cc1)NC(C)=O)C(=O)Nc1ccc2c(C)cc(=O)oc2c1; assay: as §2
[5] = compound: CC[C@H](C)[C@H](NC(=O)[C@H](CC(C)C)NC(=O)[C@H](CCCNC(=N)N)NC(C)=O)C(=O)N[C@@H](CCCCNC(C)=O)C(=O)Nc1ccc2c(C)cc(=O)oc2c1; assay: (§3) Substrate activity at human N-terminal His-tagged SIRT1 (183 to 664 residues) expressed in Escherichia coli assessed as ratio of Kcat to Km measured after 1 hr in presence of NAD+ and trypsin by Michaelis-Menten kinetic model based fluorescence assay
[6] = compound: CC(=O)NCCCC[C@H](NC(=O)[C@H](CC(C)C)NC(=O)[C@H](CCCCN)NC(=O)[C@H](Cc1ccc(O)cc1)NC(C)=O)C(=O)Nc1ccc2c(C)cc(=O)oc2c1; assay: as §3
[7] = compound: CC[C@H](C)[C@H](NC(=O)[C@H](CC(C)C)NC(=O)[C@H](CCCNC(=N)N)NC(C)=O)C(=O)N[C@@H](CCCCNC(C)=O)C(=O)Nc1ccc2c(C)cc(=O)oc2c1; assay: (§4) Substrate activity at human N-terminal His-tagged SIRT1 (183 to 664 residues) expressed in Escherichia coli assessed as Km measured after 1 hr in presence of NAD+ and trypsin by Michaelis-Menten kinetic model based fluorescence assay
[8] = compound: CC(=O)NCCCC[C@H](NC(=O)[C@H](CC(C)C)NC(=O)[C@H](CCCCN)NC(=O)[C@H](Cc1ccc(O)cc1)NC(C)=O)C(=O)Nc1ccc2c(C)cc(=O)oc2c1; assay: as §4

B1: NAD-dependent protein deacetylase sirtuin-1 (Homo sapiens), Q96EB6 (protein)
chain: MADEAALALQPGGSPSAAGADREAASSPAGEPLRKRPRRDGPGLERSPGEPGGAAPEREVPAAARGCPGAAAAALWREAEAEAAAAGGEQEAQATAAAGEGDNGPGLQGPSREPPLADNLYDEDDDDEGEEEEEAAAAAIGYRDNLLFGDEIITNGFHSCESDEEDRASHASSSDWTPRPRIGPYTFVQQHLMIGTDPRTILKDLLPETIPPPELDDMTLWQIVINILSEPPKRKKRKDINTIEDAVKLLQECKKIIVLTGAGVSVSCGIPDFRSRDGIYARLAVDFPDLPDPQAMFDIEYFRKDPRPFFKFAKEIYPGQFQPSLCHKFIALSDKEGKLLRNYTQNIDTLEQVAGIQRIIQCHGSFATASCLICKYKVDCEAVRGDIFNQVVPRCPRCPADEPLAIMKPEIVFFGENLPEQFHRAMKYDKDEVDLLIVIGSSLKVRPVALIPSSIPHEVPQILINREPLPHLHFDVELLGDCDVIINELCHRLGGEYAKLCCNPVKLSEITEKPPRTQKELAYLSELPPTPLHVSEDSSSPERTSPPDSSVIVTLLDQAAKSNDDLDVSESKGCMEEKPQEVQTSRNVESIAEQMENPDLKNVGSSTGEKNERTSVAGTVRKCWPNRVAKEQISRRLDGNQYLFLPPNRYIFHGAEVYSDSEDDVLSSSSCGSNSDSGTCQSPSLEEPMEDESEIEEFYNGLEDEPDVPERAGGAGFGTDGDDQEAINEAISVKQEVTDMNYPSNKS
kcat [1]: 37.9 10^-3/s | kcat [2]: 17.3 10^-3/s | Vmax [3]: 454 nM/min | Vmax [4]: 208 nM/min | kcat/Km [5]: 669 M⁻¹ s⁻¹ | kcat/Km [6]: 226 M⁻¹ s⁻¹ | Km [7]: 56.6 µM | Km [8]: 76.5 µM
